This note sets out measurements from patent publication US20220073599A1 (Hoffmann-La Roche, published 2022).

Where a chain is given by its changes, count along the chain named.

In assay [1] the target is T1, human VEGFA-121-His (human, UniProt P15692 181-395).
T1 construct: Prepared in-house; not shown: His tag
T1 sequence: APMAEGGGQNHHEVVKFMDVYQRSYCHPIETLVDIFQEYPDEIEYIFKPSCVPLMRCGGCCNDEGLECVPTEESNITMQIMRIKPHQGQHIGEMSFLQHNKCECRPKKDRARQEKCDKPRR
In words: KinExA equilibrium titration in solution, VEGFA-121. On the technique in general: A kinetic exclusion assay measures how much of one partner remains free in solution.

For a further assay, the target named is T2, human VEGFA-165 (human, UniProt P15692-4 27-191).
T2 construct: also called hVEGF-A165
In words: KinExA, VEGFA-165; set-up for VEGFA-165 not described.

Assay [2] deals with T1, human VEGFA-121-His. Kind of assay: SPR crossreactivity set-up, VEGF-A121-His captured by anti-His antibody, Fab injected, single cycle kinetics. The procedure: (§1) An anti-His capturing antibody (GE Healthcare 28995056) was immobilized to a Series S Sensor Chip C1 (GE Healthcare BR100535) using standard amine coupling chemistry resulting in a surface density of approximately 600 resonance units (RU). As running and dilution buffer, HBS-P+ (10 mM HEPES, 150 mM NaCl pH 7.4, 0.05% Surfactant P20) was used. […] A dilution series of the tested antibody (3.7-300 nM, 1:3 dilution) was successively injected for 60 s each, dissociation was monitored for 3600 s at a flow rate of 30 μl/min (single cycle kinetics). The surface was regenerated by injecting 10 mM Glycine pH 1.5 for 60 s at a flow of 5 μl/min. […] Curve fitting was performed using the 1:1 Langmuir binding model within the Biacore® evaluation software.
Crossreactivity to VEGF-A and ANG2 from other species was assessed as described above in “Materials & general methods” section.

The target in assay [3] is T1, human VEGFA-121-His. Kind of assay: SPR, VEGF-A121-His captured by anti-His antibody, Fab injected, single cycle kinetics; marked outside of Biacore specification. The procedure: as §1
The target of assay [4] is T3, human Ang2-RBD (human, UniProt O15123 275-496, limits assumed).
T3 construct: also called Human ANG2 (SPR); Angiopoietin 2-RBD
T3 sequence: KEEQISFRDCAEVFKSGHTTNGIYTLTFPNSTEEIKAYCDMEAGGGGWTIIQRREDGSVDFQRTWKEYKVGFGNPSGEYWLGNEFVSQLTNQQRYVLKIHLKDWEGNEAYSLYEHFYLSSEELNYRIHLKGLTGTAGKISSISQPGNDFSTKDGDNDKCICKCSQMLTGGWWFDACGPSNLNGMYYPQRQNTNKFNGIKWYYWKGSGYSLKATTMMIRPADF
Kind of assay: SPR, Fab captured by anti-Fab antibody, Ang2-RBD injected, 25 C. How it is done:
(§2) An anti-Fab capturing antibody (GE Healthcare 28958325) was immobilized to a Series S Sensor Chip C1 (GE Healthcare BR100535) using standard amine coupling chemistry resulting in a surface density of approximately 800 resonance units (RU). As running and dilution buffer, HBS-P+ (10 mM HEPES, 150 mM NaCl pH 7.4, 0.05% Surfactant P20) was used, the temperature of measurement was 25° C. The tested antibody was captured by injecting a 50 nM solution for 60 sec at a flow of 5 μl/min. Association was measured by injection of human Ang2-RBD in various concentrations in solution for 180 sec at a flow of 30 μl/min (0.07 nM-50 nM, 1:3 dilution). The dissociation phase was monitored for up to 900 sec and triggered by switching from the sample solution to running buffer at a flow rate of 30 μl/min. The surface was regenerated by injection of 10 mM Glycine pH 2.1 for 60 s at a flow rate of 30 μl/min. Bulk refractive index differences were corrected by subtracting blank injections and by subtracting the response obtained from the reference flow cell without captured tested antibody. Curve fitting was performed using the 1:1 Langmuir binding model within the Biacore® evaluation software.
A general note: SPR reads the build-up and loss of mass on a sensor chip optically.

Assay [5] concerns the target T3, human Ang2-RBD. Kind of assay: SPR, Fab captured by anti-Fab antibody, Ang2-RBD injected, 25 C, 1:1 fit. How it is done:
as §2

For the next assay, the target named is T4, human Ang2-RBD-muFc (human, UniProt O15123 275-496, limits assumed).
T4 construct: also called Human ANG2 (KinExA); not shown: murine Fc (muFc)
T4 sequence: T3 sequence
In words: KinExA equilibrium titration in solution, constant Ang2-RBD-muFc. How it is done:
All KinExA® experiments were performed at room temperature (RT) using PBS pH 7.4 with 0.01% BSA and 0.01% Tween® 20 (BioRad, #161-0781) as running buffer. […] A flow rate of 0.25 ml/min was used. A constant amount of Ang2-RBD-muFc (50 pM and in a second experiment 500 pM) was titrated with tested antibody by twofold serial dilution starting at 4 nM (concentration range 1.95 pM-4000 pM). Antigen-antibody complexes were incubated at RT for at least 8 h to allow equilibrium to be reached. Equilibrated mixtures were then drawn through a column of Anti-Ang2 antibody (MAB098) coupled beads in the KinExA® system at a volume of 750 μl for 50 pM constant Ang2 and at a volume of 188 μl for 500 pM constant Ang2 permitting unbound Ang2 to be captured by the beads without perturbing the equilibrium state of the solution. Bound Ang2 was detected using a second biotinylated anti-Ang2 antibody (BAM0981) with a concentration of 250 ng/ml and following by an injection of 250 ng/ml Streptavidin Alexa Fluor™ 647 conjugate in sample buffer. Each sample was measured in duplicates for all equilibrium experiments. The KD was obtained from non-linear regression analysis of the data using a one-site homogeneous binding model contained within the KinExA® software (Version 4.0.11) using the “standard analysis” method. […]

B1: bispecific anti-VEGF-A/anti-ANG2 Fab fragment P1AD9820 (Fab, V domains shown)
VH: SEHLVESGGGLVKPGGSLRLSCATADFFEYDDMSWVRQAPGKGLEWVGSISPKGDHKYLNTKFIGRFTISRDDSKNTLYLQMNSLRAEDTAVYYCARDVGFFDWWGQGTLVTVSS
VL: AIYMHQEPSSLSASVGDRVTITCHGSYWLNSEVAWYQQKPGKAPKLLIFDGDFKVYEVPSRFSGSGSHEDYTLTISSLQPEDFATYYCQQYRYHPYTFGHGTKVEIKR
notes: Bispecific Fab with two paratopes in one VH/VL pair; also called P1AD9820 Fab
Turning to B1, in the assay with human VEGFA-121-His [1], the Kd was around 4 pM. The same molecule returned a Kd in the assay with human VEGFA-165 of around 2 pM. Moreover, in the assay with human VEGFA-121-His [2], the Kd was found to be 0.0455 nM, the koff is 2.21e-05 s⁻¹, the kon was determined as 486000 M⁻¹ s⁻¹ and the “t1/2” value amounted to 523 min.

B2: bispecific anti-VEGF-A/anti-ANG2 Fab fragment P1AA8906 (Fab, V domains shown)
VH: DFQLVESGGGLVKPGGSLRLSCAASYEFEYDDMSWVRQAPGKGLEWVGSISPKGGSTYYNTKFIGRFTISRDNSKNTLYLQMNSLRAEDTAVYYCARDVGFFDMWGQGTLVTVSS
VL: B1 VL with N30S, S31N, E32Y, V33L, G51A, D52R, F53W, K54L, Y56H, E57G
notes: Bispecific Fab with two paratopes in one VH/VL pair (DutaFab); CH1 and Ckappa
On to B2, for which, in the assay with human VEGFA-121-His [3], the Kd was found to be 3 pM and the koff was determined as 4.53e-06 s⁻¹. Also, the “t1/2” value in the assay with human Ang2-RBD [4] stood at 0.4 min. Also, in the assay with human Ang2-RBD [5], the Kd was 4.55 nM, the koff was found to be 0.032 s⁻¹ and the kon came to 7.03e+06 M⁻¹ s⁻¹. Moreover, the Kd with human Ang2-RBD-muFc is 7.18 nM.

What is called Kd is the concentration at which binding is half-saturated. What is called koff is the rate constant with which the complex falls apart. A word on the kon: it is a measure of how fast the partners come together. The low end stands for slower complex formation, the high end for faster complex formation.
